{"source": "paper PMC7749629", "molecular_target": "T1, h-PUS10 (recombinant PUS10 from total HEK293T extract) (human, UniProt Q3MIT2 1-529)", "T1 sequence": "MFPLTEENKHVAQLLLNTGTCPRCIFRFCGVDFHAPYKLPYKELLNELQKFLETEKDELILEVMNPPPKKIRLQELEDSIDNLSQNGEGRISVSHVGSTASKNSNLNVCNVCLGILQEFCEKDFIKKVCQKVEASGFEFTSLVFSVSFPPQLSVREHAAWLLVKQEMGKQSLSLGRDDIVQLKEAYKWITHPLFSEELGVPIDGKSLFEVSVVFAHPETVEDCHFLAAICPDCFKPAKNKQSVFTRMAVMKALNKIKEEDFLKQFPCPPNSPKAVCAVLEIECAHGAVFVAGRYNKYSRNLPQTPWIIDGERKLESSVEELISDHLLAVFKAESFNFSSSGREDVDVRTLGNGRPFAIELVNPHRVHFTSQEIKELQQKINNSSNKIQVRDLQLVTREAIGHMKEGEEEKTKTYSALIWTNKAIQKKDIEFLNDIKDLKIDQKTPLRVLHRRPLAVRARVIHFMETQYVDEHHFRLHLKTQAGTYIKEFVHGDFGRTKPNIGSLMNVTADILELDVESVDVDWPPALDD", "assay": "EMSA"}
{"binder": "mutated tRNAAU-Ala (U59A, G60A; GAAA at 57-60) (structured_RNA, unmodified transcript) RNA: GGGGAAUUAGCUCAAAUGGUAGAGCGCUCGCUUAGCAUGCGAGAGGUAGCGGGAUCGAAACCCGCAUUCUCCA", "values": [{"measurement": "binding result", "result": "binds"}]}
